Read-outs that look alike come from different tables or passages of the source.
Experiments:
[1] = molecular target: S protein of authentic SARS-CoV-2 Omicron BA.1 virus (SARS-CoV-2) (UniProt P0DTC2); experiment: cell-based or functional assay
[2] = molecular target: S protein of authentic SARS-CoV-2 Omicron BA.5 virus (SARS-CoV-2) (UniProt P0DTC2); experiment: cell-based or functional assay
[3] = molecular target: SARS-CoV-2 Omicron BA.4/5 RBD, aa 319-541, C-terminal 6xHis-tag (SARS-CoV-2) (UniProt P0DTC2)
[4] = molecular target: SARS-CoV-2 Omicron BA.2 RBD, aa 319-541, C-terminal 6xHis-tag (SARS-CoV-2) (UniProt P0DTC2); experiment: ELISA, plates coated with RBD
[5] = molecular target: SARS-CoV-2 Omicron BA.2 RBD, aa 319-541, C-terminal 6xHis-tag (SARS-CoV-2) (UniProt P0DTC2)

Work on DXP-604 IgG (antibody) yielded an IC50, microneutralization assay with authentic virus [1] of 22.9 nM, an IC50, microneutralization assay with authentic virus [2] of 12.4 nM and an EC50 [3] of 1.6 nM. For the same substance, the EC50 [4] was 9.48 nM and the EC50 [5] was 9.48 nM.

— patent publication US20240209065A1
